# Substitutions are numbered along the chain they refer to.
# T1: FcγRIIa(H) (human, UniProt P12318 34-217)
# T1 construct: extracellular domain; allotype H131; also called 2aH
# T1 sequence: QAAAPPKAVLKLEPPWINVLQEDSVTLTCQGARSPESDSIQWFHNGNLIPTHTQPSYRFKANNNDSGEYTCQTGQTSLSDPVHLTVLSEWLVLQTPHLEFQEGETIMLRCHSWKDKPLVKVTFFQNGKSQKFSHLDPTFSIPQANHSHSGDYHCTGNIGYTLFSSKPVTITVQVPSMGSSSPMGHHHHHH
# T2: FcγRIIa(R) (human, UniProt P12318 34-217)
# T2 construct: extracellular domain; allotype R131; also called 2aR
# T2 sequence: T1 sequence with H134R
# T3: FcγRIIb (human, UniProt P31994 43-217)
# T3 construct: extracellular domain; also called 2b
# T3 sequence: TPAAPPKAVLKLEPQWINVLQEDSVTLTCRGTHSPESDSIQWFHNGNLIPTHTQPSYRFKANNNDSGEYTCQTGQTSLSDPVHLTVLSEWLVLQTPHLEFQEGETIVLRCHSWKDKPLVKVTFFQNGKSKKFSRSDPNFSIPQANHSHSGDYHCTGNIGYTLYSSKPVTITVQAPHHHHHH
# B1: GpH7-A5/GpH7-B3 variant S337_08L/GpL16-k0 (antibody, human IgG1, kappa)
# heavy 1: not shown
# heavy 2: not shown
# light: DIVMTQSPLSLPVTPGEPASISCQASESLVHSNRNTYLHWYLQKPGQSPQLLIYKVSNRFSGVPDRFSGSGSGTDFTLKISRVEAEDVGVYYCSQNTHVPPTFGQGTKVEIERTVAAPSVFIFPPSDEQLKSGTASVVCLLNNFYPREAKVQWKVDNALQSGNSQESVTEQDSKDSTYSLSSTLTLSKADYEKHKVYACEVTHQGLSSPVTKSFNRGEC
# notes: Heterodimerized anti-glypican 3 IgG1 antibody with the mutation in only one H chain (GpH7-B3 side); also called He Ab
# B2: GpH7-A5/GpH7-B3 variant S337_07I/GpL16-k0 (antibody, human IgG1, kappa)
# heavy 1: not shown
# heavy 2: not shown
# light: B1 light
# notes: as for B1
# B3: GpH7-A5/GpH7-B3 variant S337_16H/GpL16-k0 (antibody, human IgG1, kappa)
# heavy 1: not shown
# heavy 2: not shown
# light: B1 light
# notes: as for B1
# B4: GpH7-A5/GpH7-B3 variant S337_19Q/GpL16-k0 (antibody, human IgG1, kappa)
# heavy 1: not shown
# heavy 2: not shown
# light: B1 light
# notes: as for B1
# B5: GpH7-A5/GpH7-B3 variant S337_15Y/GpL16-k0 (antibody, human IgG1, kappa)
# heavy 1: not shown
# heavy 2: not shown
# light: B1 light
# notes: as for B1
# B6: GpH7-A5/GpH7-B3 variant S337_14T/GpL16-k0 (antibody, human IgG1, kappa)
# heavy 1: not shown
# heavy 2: not shown
# light: B1 light
# notes: as for B1
# B7: GpH7-A5/GpH7-B3 variant S337_11K/GpL16-k0 (antibody, human IgG1, kappa)
# heavy 1: not shown
# heavy 2: not shown
# light: B1 light
# notes: as for B1
# B8: Kn125-L2b-6 (antibody, human IgG1, kappa)
# heavy 1: QDQLVQSGAEVKKPGASVKVSCKASGFNIKDTYIQWVRQAPGQGLEWMGRIDPLRKQTKYREKFEGRVTITADTSTNTAYMELSSLRSEDTAVYYCVRSGREFDYWGQGTLVTVSSASTKGPSVFPLAPSSKSTSGGTAALGCLVKDYFPEPVTVSWNSGALTSGVHTFPAVLQSSGLYSLSSVVTVPSSSLGTQTYICNVNHKPSNTKVDKKVEPKSCDKTHTCPPCPAPELLGGPSVFLFPPKPKDTLMISRTPEVTCVVVDVSHEEPEVKFNWYVDGVEVHNAKTKPREEQYNSTYRVVSVLTVLHQDWLNGKEYKCKVSNDALPMPIEETISKAKGQPREPQVYTLPPSRCELTKNQVSLSCAVKGFYPSDIAVEWESNGQPENNYKTTPPVLDSDGSFFLVSKLTVDKSRWQQGNVFSCSVMHEALHNHYTQKSLSLSP
# heavy 2: QDQLVQSGAEVKKPGASVKVSCKASGFNIKDTYIQWVRQAPGQGLEWMGRIDPLRKQTKYREKFEGRVTITADTSTNTAYMELSSLRSEDTAVYYCVRSGREFDYWGQGTLVTVSSASTKGPSVFPLAPSSKSTSGGTAALGCLVKDYFPEPVTVSWNSGALTSGVHTFPAVLQSSGLYSLSSVVTVPSSSLGTQTYICNVNHKPSNTKVDKKVEPKSCDKTHTCPPCPAPEYQWGPMVFLFPPKPKDTLMISRTPEVTCVVVDVSDEEGGSGGSPEVKFNWYVDGVEVHNAKTKPREEQYNATYRVVSVLTVLHQDWLNGKEYKCKVSNKALPAPIEKTISKAKGQPREPQVCTLPPSRDELTKNQVSLWCLVKGFYPSDIAVEWESNGQPENNYKTTPPVLDSDGSFFLYSKLTVDKSRWQQGNVFSCSVMHEALHNHYTQKSLSLSP
# light: DIQMTQSPSSLSASVGDRVTITCRASQDIHKYIAWYQQKPGQAPRLLIQYTSTLQPGVPSRFSGSGSGTDYTFTISSLQPEDIATYYCLQYEQLRTFGGGTKVEIKRTVAAPSVFIFPPSDEQLKSGTASVVCLLNNFYPREAKVQWKVDNALQSGNSQESVTEQDSKDSTYSLSSTLTLSKADYEKHKVYACEVTHQGLSSPVTKSFNRGEC
# notes: heterodimerized anti-EREG antibody: altered H240-Kn125 chain (Gly/Ser peptide in loop) with H240-Hl076 and L73-k0
# B9: Kn125-L4-3 (antibody, human IgG1, kappa)
# heavy 1: B8 heavy 1
# heavy 2: QDQLVQSGAEVKKPGASVKVSCKASGFNIKDTYIQWVRQAPGQGLEWMGRIDPLRKQTKYREKFEGRVTITADTSTNTAYMELSSLRSEDTAVYYCVRSGREFDYWGQGTLVTVSSASTKGPSVFPLAPSSKSTSGGTAALGCLVKDYFPEPVTVSWNSGALTSGVHTFPAVLQSSGLYSLSSVVTVPSSSLGTQTYICNVNHKPSNTKVDKKVEPKSCDKTHTCPPCPAPEYQWGPMVFLFPPKPKDTLMISRTPEVTCVVVDVSDEEPEVKFNWYVDGVEVHNAKTKPREEQYNATYRVVSVLTVLHQDWLNGKEYKCKVSNKGGSALPAPIEKTISKAKGQPREPQVCTLPPSRDELTKNQVSLWCLVKGFYPSDIAVEWESNGQPENNYKTTPPVLDSDGSFFLYSKLTVDKSRWQQGNVFSCSVMHEALHNHYTQKSLSLSP
# light: B8 light
# notes: as for B8
# B10: Kn125-L2a-9 (antibody, human IgG1, kappa)
# heavy 1: B8 heavy 1
# heavy 2: QDQLVQSGAEVKKPGASVKVSCKASGFNIKDTYIQWVRQAPGQGLEWMGRIDPLRKQTKYREKFEGRVTITADTSTNTAYMELSSLRSEDTAVYYCVRSGREFDYWGQGTLVTVSSASTKGPSVFPLAPSSKSTSGGTAALGCLVKDYFPEPVTVSWNSGALTSGVHTFPAVLQSSGLYSLSSVVTVPSSSLGTQTYICNVNHKPSNTKVDKKVEPKSCDKTHTCPPCPAPEYQWGPMVFLFPPKPKDTLMISRTPEVTCVVVDVSDEGGSGGSGGSEPEVKFNWYVDGVEVHNAKTKPREEQYNATYRVVSVLTVLHQDWLNGKEYKCKVSNKALPAPIEKTISKAKGQPREPQVCTLPPSRDELTKNQVSLWCLVKGFYPSDIAVEWESNGQPENNYKTTPPVLDSDGSFFLYSKLTVDKSRWQQGNVFSCSVMHEALHNHYTQKSLSLSP
# light: B8 light
# notes: as for B8
# B11: Kn125-L4-9 (antibody, human IgG1, kappa)
# heavy 1: B8 heavy 1
# heavy 2: QDQLVQSGAEVKKPGASVKVSCKASGFNIKDTYIQWVRQAPGQGLEWMGRIDPLRKQTKYREKFEGRVTITADTSTNTAYMELSSLRSEDTAVYYCVRSGREFDYWGQGTLVTVSSASTKGPSVFPLAPSSKSTSGGTAALGCLVKDYFPEPVTVSWNSGALTSGVHTFPAVLQSSGLYSLSSVVTVPSSSLGTQTYICNVNHKPSNTKVDKKVEPKSCDKTHTCPPCPAPEYQWGPMVFLFPPKPKDTLMISRTPEVTCVVVDVSDEEPEVKFNWYVDGVEVHNAKTKPREEQYNATYRVVSVLTVLHQDWLNGKEYKCKVSNKGGSGGSGGSALPAPIEKTISKAKGQPREPQVCTLPPSRDELTKNQVSLWCLVKGFYPSDIAVEWESNGQPENNYKTTPPVLDSDGSFFLYSKLTVDKSRWQQGNVFSCSVMHEALHNHYTQKSLSLSP
# light: B8 light
# notes: as for B8
# B12: Kn125-L2b-9 (antibody, human IgG1, kappa)
# heavy 1: B8 heavy 1
# heavy 2: B10 heavy 2 with G269E, S271G, G272S, S274G, G275S, S277G, E278S
# light: B8 light
# notes: as for B8
# How the values were obtained:
# FcγRIIIa = molecular target: T4, FcγRIIIa (human, UniProt P08637 17-208); test: SPR (Biacore), antibody captured on chip, FcγR as analyte; relative to GpH7-A5/GpH7-B3/GpL16-k0 = 100
# T4 construct: extracellular domain; also called 3a
# FcγRIIa(H) = molecular target: T1, FcγRIIa(H); test: as above
# FcγRIIa(R) = molecular target: T2, FcγRIIa(R); test: as above
# FcγRIIb = molecular target: T3, FcγRIIb; test: as above
# FcγRIa = molecular target: T5, FcγRIa (human, UniProt P12314 16-292); test: as above
# T5 construct: extracellular domain; also called 1a
# FcγRIIIaV = molecular target: T6, FcγRIIIaV (human, UniProt P08637 17-208); test: SPR (Biacore), antibody captured, FcγR as analyte, 1:1 Langmuir fit
# T6 construct: extracellular domain
# T6 sequence (P08637 other isoform, or with tags, fused parts or gaps): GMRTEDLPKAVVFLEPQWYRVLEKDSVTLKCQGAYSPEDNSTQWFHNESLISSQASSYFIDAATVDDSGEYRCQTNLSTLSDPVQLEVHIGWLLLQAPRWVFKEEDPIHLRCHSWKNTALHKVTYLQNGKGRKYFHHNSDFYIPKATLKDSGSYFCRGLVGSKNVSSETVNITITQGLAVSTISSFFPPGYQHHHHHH
# Description: The antibody of interest was analyzed for its interaction with FcγR using a BiaCore™ T100, BiaCore™ A100, or BiaCore™ 4000 surface plasmon resonance system (GE Healthcare Japan Corp.). The running buffer used was HBS-EP+ (GE Healthcare Japan Corp.). The assay temperature was set to 25° C. The sensor chips used were: a chip prepared by immobilizing antigenic peptides onto Series S Sensor Chip CM5 (GE Healthcare Japan Corp.) by the amine coupling method; a chip prepared by immobilizing antigenic peptides biotinylated in advance onto Series S Sensor Chip SA (certified) (GE Healthcare Japan Corp.) through their interaction; a chip prepared by immobilizing protein L (ACTIGEN, BioVision, Inc.) onto Series S Sensor Chip CM5 (GE Healthcare Japan Corp.); and a chip prepared by immobilizing protein A/G (Thermo Fisher Scientific K.K.) onto Series S Sensor Chip CM5 (GE Healthcare Japan Corp.). The antibody of interest was captured onto any of these chips and allowed to interact with FcγR diluted with a running buffer. The antibody captured on the chip was washed off through the reaction of 10 mM glycine-HCl (pH 1.5) to regenerate the chip, which was repetitively used.
# T4 sequence (P08637 other isoform, or with tags, fused parts or gaps): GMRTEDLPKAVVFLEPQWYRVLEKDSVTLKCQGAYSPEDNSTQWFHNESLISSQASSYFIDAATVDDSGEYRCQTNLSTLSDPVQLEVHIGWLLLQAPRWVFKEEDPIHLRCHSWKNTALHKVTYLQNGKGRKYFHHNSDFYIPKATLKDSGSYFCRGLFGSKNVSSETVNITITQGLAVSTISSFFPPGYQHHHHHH
# T5 sequence (P12314 other isoform, or with tags, fused parts or gaps): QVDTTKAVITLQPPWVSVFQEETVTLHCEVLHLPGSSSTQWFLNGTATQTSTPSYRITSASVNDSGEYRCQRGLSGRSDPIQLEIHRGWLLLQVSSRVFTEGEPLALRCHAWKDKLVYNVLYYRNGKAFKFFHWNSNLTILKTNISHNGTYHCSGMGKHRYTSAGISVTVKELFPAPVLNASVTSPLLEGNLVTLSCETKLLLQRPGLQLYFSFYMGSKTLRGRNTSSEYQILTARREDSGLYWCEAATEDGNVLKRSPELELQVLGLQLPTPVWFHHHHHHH
Binder,He/Con 3a (binding activity relative to GpH7-A5/GpH7-B3/GpL16-k0 x 100) (FcγRIIIa),He/Con 2aH (binding activity relative to GpH7-A5/GpH7-B3/GpL16-k0 x 100) (FcγRIIa(H)),He/Con 2aR (binding activity relative to GpH7-A5/GpH7-B3/GpL16-k0 x 100) (FcγRIIa(R)),He/Con 2b (binding activity relative to GpH7-A5/GpH7-B3/GpL16-k0 x 100) (FcγRIIb),He/Con 1a (binding activity relative to GpH7-A5/GpH7-B3/GpL16-k0 x 100) (FcγRIa),Kd (FcγRIIIaV) [nM]
B1,90.2 % of control,106 % of control,109 % of control,109 % of control,102 % of control,–
B2,88.3 % of control,107 % of control,111 % of control,113 % of control,102 % of control,–
B3,100 % of control,108 % of control,111 % of control,114 % of control,101 % of control,–
B4,91.2 % of control,104 % of control,108 % of control,109 % of control,101 % of control,–
B5,94.9 % of control,106 % of control,107 % of control,109 % of control,101 % of control,–
B6,94 % of control,110 % of control,112 % of control,114 % of control,102 % of control,–
B7,80.1 % of control,102 % of control,105 % of control,103 % of control,101 % of control,–
B8,–,–,–,–,–,6.3
B9,–,–,–,–,–,6.9
B10,–,–,–,–,–,11
B11,–,–,–,–,–,1.7
B12,–,–,–,–,–,7
